The target of the experiment is T1, murine GPRC5D (murine, UniProt Q9JIL6 1-344).
T1 construct: whole, on cells; also called mGPRC5D; mouse GPRC5D
T1 sequence (looked up): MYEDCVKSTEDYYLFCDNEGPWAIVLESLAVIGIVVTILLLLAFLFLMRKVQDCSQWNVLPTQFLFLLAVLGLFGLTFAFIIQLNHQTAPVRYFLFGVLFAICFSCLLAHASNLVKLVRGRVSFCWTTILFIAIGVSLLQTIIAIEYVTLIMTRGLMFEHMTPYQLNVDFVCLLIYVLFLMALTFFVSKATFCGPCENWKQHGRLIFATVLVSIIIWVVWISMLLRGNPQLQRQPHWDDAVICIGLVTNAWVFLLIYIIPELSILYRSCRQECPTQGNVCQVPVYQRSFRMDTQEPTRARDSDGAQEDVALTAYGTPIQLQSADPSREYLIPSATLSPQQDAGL
Briefly: Jurkat Nur77-RFP reporter activation after 1:1 co-culture with K562 cells expressing mGPRC5D (indirect read-out). Here is the method:
K562 cells were transduced to express human (hGPRC5D), cGPRC5D or mGPRC5D. The Jurkat Nur77-RFP activation reporter line described above was transduced with polynucleotides constructs encoding CARs described in Example 3. […] Reporter cells were also incubated with parental K562 cells as a negative control.

B1: GPRC5D-203 VL/VH - long (anti-GPRC5D CAR: GPRC5D-203 VL/VH scFv, long spacer, CD28 transmembrane domain, 4-1BB and CD3zeta signaling domains) (other)
chain: SSELTQDPAVSVALGQTVRITCQGDSLRSYYASWYQQKPGQAPVLVIYGKNNRPSGIPDRFSGSSSGNTASLTITGAQAEDEADYYCNSRDSSGNPPVVFGGGTKLTVLGSRGGGGSGGGGSGGGGSLEMAQVQLVESGGGLVHPGGSLRLSCAASGFTFRSHSMNWVRQAPGKGLEWVSSISSDSTYTYYADSVKGRFTISRDNAKNSLYLQMNSLRAEDTAVYYCARSGGQWKYYDYWGQGTLVTVSSESKYGPPCPPCPAPPVAGPSVFLFPPKPKDTLMISRTPEVTCVVVDVSQEDPEVQFNWYVDGVEVHNAKTKPREEQFQSTYRVVSVLTVLHQDWLNGKEYKCKVSNKGLPSSIEKTISKAKGQPREPQVYTLPPSQEEMTKNQVSLTCLVKGFYPSDIAVEWESNGQPENNYKTTPPVLDSDGSFFLYSRLTVDKSRWQEGNVFSCSVMHEALHNHYTQKSLSLSLGKMFWVLVVVGGVLACYSLLVTVAFIIFWVKRGRKKLLYIFKQPFMRPVQTTQEEDGCSCRFPEEEEGGCELRVKFSRSADAPAYQQGQNQLYNELNLGRREEYDVLDKRRGRDPEMGGKPRRKNPQEGLYNELQKDKMAEAYSEIGMKGERRRGKGHDGLYQGLSTATKDTYDALHMQALPPR
notes: Chimeric antigen receptor on the surface of Jurkat Nur77-RFP reporter cells or primary T cells; signal peptide left out; In the reporter constructs a T2A-GFP follows the CAR, so T2A residues may remain at the C-terminus
Regarding B1, the binding result was “no binding”.

The values above are taken from patent US20210393689A1 (JUNO THERAPEUTICS, published 2021).
